Values belong to the binder of their own block, whether it stands above or below them. Non-standard residues stand in square brackets, D forms with d. No end group written: not given here. Pmb = 4-(di-t-butylphosphonomethyl)-3-methylbutyric acid, phosphonate replacement of phospho-Thr; pT = C[C@@H](OP(=O)(O)O)[C@H](N)C(=O)O; pS = N[C@@H](COP(=O)(O)O)C(=O)O
Assays:
[1] = molecular target: T1, 14-3-3ε (endogenous, in human SCC12B.2 squamous cell carcinoma cells) (human, UniProt P62258 1-255); test: cell-based or functional assay
T1 sequence (looked up): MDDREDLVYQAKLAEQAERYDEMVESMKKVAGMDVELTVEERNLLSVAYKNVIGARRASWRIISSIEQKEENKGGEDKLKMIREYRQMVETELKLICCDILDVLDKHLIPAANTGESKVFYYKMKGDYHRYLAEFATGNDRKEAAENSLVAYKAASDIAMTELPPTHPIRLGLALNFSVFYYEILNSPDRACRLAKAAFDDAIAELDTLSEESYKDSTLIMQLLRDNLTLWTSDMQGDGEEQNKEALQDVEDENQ

[2] = molecular target: T2, 14-3-3ε-(His)12 protein (UniProt P62258 1-255); test: SPR, Biacore 8K, 14-3-3ε-(His)12 on NTA chip, peptide 1 nM-2000 nM, 25° C., mean±SD
T2 sequence: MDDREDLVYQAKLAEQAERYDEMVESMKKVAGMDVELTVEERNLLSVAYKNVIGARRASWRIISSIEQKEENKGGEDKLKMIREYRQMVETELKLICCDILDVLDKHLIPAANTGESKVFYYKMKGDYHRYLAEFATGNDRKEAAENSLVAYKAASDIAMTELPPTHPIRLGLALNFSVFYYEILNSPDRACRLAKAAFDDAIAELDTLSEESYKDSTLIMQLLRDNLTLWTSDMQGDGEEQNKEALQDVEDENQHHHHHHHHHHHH
Experimental: For the SPR measurements, binding affinities of the modified pT peptide for 14-3-3ε were measured by SPR using a Biacore 8K Surface plasmon resonance instrument. 100 nM 14-3-3ε-(His)12 protein in 20 mM Tris, 150 mM NaCl, 50 μM EDTA, 0.005% Tween 20, pH 7.4 buffer was immobilized to a NiCl2 activated NTA chip at a flow rate of 5 μL/min for 10 min and then washed with the running buffer for 20 min. Then peptide solutions at a concentration range of 1 nM-2000 nM were injected cycle-wise at the flow rate of 30 μL/min for 1 min, and dissociation time was set for 3 min. All SPR experiments were performed at 25° C. […] At least three replicates were done for each peptide at similar conditions, and binding affinities (KD) are presented as mean±SD.

[3] = molecular target: T3, 14-3-3ε protein (purified, as used in DSF and in the SPR of the Pmb peptide) (UniProt P62258 1-255); test: differential scanning fluorimetry (DSF), SYPRO-Orange, 2 µM protein and 30 µM peptide
T3 sequence (looked up): T1 sequence (looked up)
Experimental: The binding of the modified pT peptide to 14-3-3ε was assessed using differential scanning fluorimetry (DSF) and surface plasmon resonance (SPR) measurements. The melting temperature (Tm) of 14-3-3ε-peptide complexes was determined by DSF using the BioRad CFX384 Touch realtime PCR. The protein unfolding was detected with a fluorescent SYPRO-orange dye. The assay was performed in 20 mM Tris, 150 mM NaCl, and 1 mM DTT PH7.4 buffer in a […] with a total volume of 20 μL, containing 2 and 30 μM, final concentrations of protein and peptide, respectively, and 500× dilution of the SYPRO-Orange dye stock. The excitation filter for the dye was 450-490 nm, and the emission filter was 560-580 nm. The temperature was held at 25° C. for 5 min and then increased from 25 to 95° C. at a rate of 0.3° C./ min, and fluorescence was recorded over time. Tm values were determined by plotting the first derivative of the melting curve.

[4] = molecular target: T3, 14-3-3ε protein (purified, as used in …); test: SPR
[5] = molecular target: T3, 14-3-3ε protein (purified, as used in …); test: differential scanning fluorimetry (DSF), 14-3-3ε alone against 14-3-3ε with peptide

Binder: WYWK-NH2 [targeting peptide ES1P2, Trp-Tyr-Trp-Lys-NH2]
- IC50, dose response curve in SCC12B.2 cells (Neutral Red Cell Viability assay) [1]: 20.6 µM

Binder: Ac-RTKSR[pT]WAGEKSKR-NH2 [peptide pT, Ac-Arg-Thr-Lys-Ser-Arg-Thr(PO3^2-)-Trp-Ala-Gly-Glu-Lys-Ser-Lys-Arg-NH2]
- IC50, dose response curve in SCC12B.2 cells (Neutral Red Cell Viability assay) [1]: 22.6 µM

B1: peptide pS, Ac-Thr-Gln-Arg-Gln-Asn-Ser-(PO3^2-)-Ala-Pro-Arg-Met-Leu-Ser-Ser-Asn-NH2 (peptide)
peptide: Ac-TQRQN[pS]APRMLSSN-NH2
SMILES: CSCC[C@H](NC(=O)[C@H](CCCNC(=N)N)NC(=O)[C@@H]1CCCN1C(=O)[C@H](C)NC(=O)[C@H](COP(=O)(O)O)NC(=O)[C@H](CC(N)=O)NC(=O)[C@H](CCC(N)=O)NC(=O)[C@H](CCCNC(=N)N)NC(=O)[C@H](CCC(N)=O)NC(=O)[C@@H](NC(C)=O)[C@@H](C)O)C(=O)N[C@@H](CC(C)C)C(=O)N[C@@H](CO)C(=O)N[C@@H](CO)C(=O)N[C@@H](CC(N)=O)C(N)=O
- IC50, dose response curve in SCC12B.2 cells (Neutral Red Cell Viability assay) [1]: 29 µM

- Kd [2]: 0.0309 µM
B2: modified pT peptide, Ac-Arg-Thr-Lys-Ser-Arg-Thr(PO3^2-)-Trp-Ala-Tic-NH2 (peptide)
peptide: RTKSRTWAX
modifications: N-terminal acetyl; phospho-Thr at position 6; Tic residue at position 9; C-terminal amide
notes: Synthetic modification of peptide pT; also called peptide pT modified with a Tic residue
- increase in melting temperature (ΔTm) of 14-3-3ε [3]: 4.43 ° C.

- Kd [4]: 0.009 µM
B3: first targeting peptide with a Pmb residue, Ac-Arg-Thr-Lys-Ser-Arg-Pmb-Trp-Ala-Gly-NH2 (peptide)
peptide: Ac-RTKSR[Pmb]WAG-NH2
notes: Synthetic analog of the pT peptide (CDC25A Thr507 site) in which the phospho-Thr is replaced by Pmb; also called phosphono-peptide
- increase in melting temperature (ΔTm) of 14-3-3ε [5]: 3.6 ° C.
